Consider 10 proteins from PMC6042327 (BMC Biology, 2018).

B1: SGTA NT-TPR (1-213) (domain or fragment, human, UniProt O43765 1-213, looked up)
chain: MDNKKRLAYAIIQFLHDQLRHGGLSSDAQESLEVAIQCLETAFGVTVEDSDLALPQTLPEIFEAAATGKEMPQDLRSPARTPPSEEDSAEAERLKTEGNEQMKVENFEAAVHFYGKAIELNPANAVYFCNRAAAYSKLGNYAGAVQDCERAICIDPAYSKAYGRMGLALSSLNKHVEAVAYYKKALELDPDNETYKSNLKIAELKLREAPSPT
notes: SGTA, human, residues 1-213 (N-terminal dimerisation domain and TPR domain); also called version lacking the C-terminal domain; not shown: thioredoxin A, N-terminal, cleaved; His6, N-terminal, cleaved
B2: SGTA C-terminal domain (CT; residues 213-313) (domain or fragment, human, UniProt O43765 213-313, looked up)
chain: TGGVGSFDIAGLLNNPGFMSMASNLMNNPQIQQLMSGMISGGNNPLGTPGTSPSQNDLASLIQAGQQFAQQMQQQNPELIEQLRSQIRSRTPSASNDDQQE
notes: small glutamine-rich tetratricopeptide repeat-containing protein alpha (SGTA), human, residues 213-313 (complete C-terminal domain); also called C-terminal domain of SGTA; not shown: thioredoxin A, N-terminal, cleaved; His6, N-terminal, cleaved
B3: FL SGTA C153 single-cysteine variant, MTSL spin-labelled (natural protein, human, UniProt O43765 1-313, looked up)
chain: MDNKKRLAYAIIQFLHDQLRHGGLSSDAQESLEVAIQSLETAFGVTVEDSDLALPQTLPEIFEAAATGKEMPQDLRSPARTPPSEEDSAEAERLKTEGNEQMKVENFEAAVHFYGKAIELNPANAVYFSNRAAAYSKLGNYAGAVQDSERAICIDPAYSKAYGRMGLALSSLNKHVEAVAYYKKALELDPDNETYKSNLKIAELKLREAPSPTGGVGSFDIAGLLNNPGFMSMASNLMNNPQIQQLMSGMISGGNNPLGTPGTSPSQNDLASLIQAGQQFAQQMQQQNPELIEQLRSQIRSRTPSASNDDQQE
modifications: MTSL spin label on cysteine 153
notes: SGTA, human, residues 1-313; the other three wild-type cysteines changed to serine, wild-type C153 kept; source: E. coli, prepared in the same way as the wild-type versions, MTSL spin-labelled, size-exclusion chromatography; not shown: thioredoxin A, N-terminal, cleaved; His6, N-terminal, cleaved
B4: FL SGTA S197C single-cysteine mutant, MTSL spin-labelled (natural protein, human, UniProt O43765 1-313, looked up)
chain: MDNKKRLAYAIIQFLHDQLRHGGLSSDAQESLEVAIQSLETAFGVTVEDSDLALPQTLPEIFEAAATGKEMPQDLRSPARTPPSEEDSAEAERLKTEGNEQMKVENFEAAVHFYGKAIELNPANAVYFSNRAAAYSKLGNYAGAVQDSERAISIDPAYSKAYGRMGLALSSLNKHVEAVAYYKKALELDPDNETYKCNLKIAELKLREAPSPTGGVGSFDIAGLLNNPGFMSMASNLMNNPQIQQLMSGMISGGNNPLGTPGTSPSQNDLASLIQAGQQFAQQMQQQNPELIEQLRSQIRSRTPSASNDDQQE
modifications: MTSL spin label on cysteine 197
notes: SGTA, human, residues 1-313; all four wild-type cysteines changed to serine, then S197C; source: E. coli, prepared in the same way as the wild-type versions, MTSL spin-labelled, size-exclusion chromatography; not shown: thioredoxin A, N-terminal, cleaved; His6, N-terminal, cleaved
B5: FL SGTA S88C single-cysteine mutant, MTSL spin-labelled (natural protein, human, UniProt O43765 1-313, looked up)
chain: MDNKKRLAYAIIQFLHDQLRHGGLSSDAQESLEVAIQSLETAFGVTVEDSDLALPQTLPEIFEAAATGKEMPQDLRSPARTPPSEEDCAEAERLKTEGNEQMKVENFEAAVHFYGKAIELNPANAVYFSNRAAAYSKLGNYAGAVQDSERAISIDPAYSKAYGRMGLALSSLNKHVEAVAYYKKALELDPDNETYKSNLKIAELKLREAPSPTGGVGSFDIAGLLNNPGFMSMASNLMNNPQIQQLMSGMISGGNNPLGTPGTSPSQNDLASLIQAGQQFAQQMQQQNPELIEQLRSQIRSRTPSASNDDQQE
modifications: MTSL spin label on cysteine 88
notes: SGTA, human, residues 1-313; all four wild-type cysteines changed to serine, then S88C; source: E. coli, prepared in the same way as the wild-type versions, MTSL spin-labelled, size-exclusion chromatography; not shown: thioredoxin A, N-terminal, cleaved; His6, N-terminal, cleaved
B6: FL SGTA S136C single-cysteine mutant, MTSL spin-labelled (natural protein, human, UniProt O43765 1-313, looked up)
chain: MDNKKRLAYAIIQFLHDQLRHGGLSSDAQESLEVAIQSLETAFGVTVEDSDLALPQTLPEIFEAAATGKEMPQDLRSPARTPPSEEDSAEAERLKTEGNEQMKVENFEAAVHFYGKAIELNPANAVYFSNRAAAYCKLGNYAGAVQDSERAISIDPAYSKAYGRMGLALSSLNKHVEAVAYYKKALELDPDNETYKSNLKIAELKLREAPSPTGGVGSFDIAGLLNNPGFMSMASNLMNNPQIQQLMSGMISGGNNPLGTPGTSPSQNDLASLIQAGQQFAQQMQQQNPELIEQLRSQIRSRTPSASNDDQQE
modifications: MTSL spin label on cysteine 136
notes: SGTA, human, residues 1-313; all four wild-type cysteines changed to serine, then S136C; source: E. coli, prepared in the same way as the wild-type versions, MTSL spin-labelled, size-exclusion chromatography; not shown: thioredoxin A, N-terminal, cleaved; His6, N-terminal, cleaved
B7: SGTA NT-TPR S88C single-cysteine mutant, MTSL spin-labelled (domain or fragment, human, UniProt O43765 1-213, looked up)
chain: MDNKKRLAYAIIQFLHDQLRHGGLSSDAQESLEVAIQSLETAFGVTVEDSDLALPQTLPEIFEAAATGKEMPQDLRSPARTPPSEEDCAEAERLKTEGNEQMKVENFEAAVHFYGKAIELNPANAVYFSNRAAAYSKLGNYAGAVQDSERAISIDPAYSKAYGRMGLALSSLNKHVEAVAYYKKALELDPDNETYKSNLKIAELKLREAPSPT
modifications: MTSL spin label on cysteine 88
notes: SGTA, human, residues 1-213; all four wild-type cysteines changed to serine, then S88C; also called C-terminal deletion mutant S88C; source: E. coli, prepared in the same way as the wild-type versions, MTSL spin-labelled, size-exclusion chromatography; not shown: thioredoxin A, N-terminal, cleaved; His6, N-terminal, cleaved
B8: SGTA NT-TPR C153 single-cysteine variant, MTSL spin-labelled (domain or fragment, human, UniProt O43765 1-213, looked up)
chain: MDNKKRLAYAIIQFLHDQLRHGGLSSDAQESLEVAIQSLETAFGVTVEDSDLALPQTLPEIFEAAATGKEMPQDLRSPARTPPSEEDSAEAERLKTEGNEQMKVENFEAAVHFYGKAIELNPANAVYFSNRAAAYSKLGNYAGAVQDSERAICIDPAYSKAYGRMGLALSSLNKHVEAVAYYKKALELDPDNETYKSNLKIAELKLREAPSPT
modifications: MTSL spin label on cysteine 153
notes: SGTA, human, residues 1-213; the other three wild-type cysteines changed to serine, wild-type C153 kept; also called C-terminal deletion mutant C153; source: E. coli, prepared in the same way as the wild-type versions, MTSL spin-labelled, size-exclusion chromatography; not shown: thioredoxin A, N-terminal, cleaved; His6, N-terminal, cleaved
B9: SGTA NT-TPR S136C single-cysteine mutant, MTSL spin-labelled (domain or fragment, human, UniProt O43765 1-213, looked up)
chain: MDNKKRLAYAIIQFLHDQLRHGGLSSDAQESLEVAIQSLETAFGVTVEDSDLALPQTLPEIFEAAATGKEMPQDLRSPARTPPSEEDSAEAERLKTEGNEQMKVENFEAAVHFYGKAIELNPANAVYFSNRAAAYCKLGNYAGAVQDSERAISIDPAYSKAYGRMGLALSSLNKHVEAVAYYKKALELDPDNETYKSNLKIAELKLREAPSPT
modifications: MTSL spin label on cysteine 136
notes: SGTA, human, residues 1-213; all four wild-type cysteines changed to serine, then S136C; also called C-terminal deletion mutant S136C; source: E. coli, prepared in the same way as the wild-type versions, MTSL spin-labelled, size-exclusion chromatography; not shown: thioredoxin A, N-terminal, cleaved; His6, N-terminal, cleaved
B10: SGTA NT-TPR S197C single-cysteine mutant, MTSL spin-labelled (domain or fragment, human, UniProt O43765 1-213, looked up)
chain: MDNKKRLAYAIIQFLHDQLRHGGLSSDAQESLEVAIQSLETAFGVTVEDSDLALPQTLPEIFEAAATGKEMPQDLRSPARTPPSEEDSAEAERLKTEGNEQMKVENFEAAVHFYGKAIELNPANAVYFSNRAAAYSKLGNYAGAVQDSERAISIDPAYSKAYGRMGLALSSLNKHVEAVAYYKKALELDPDNETYKCNLKIAELKLREAPSPT
modifications: MTSL spin label on cysteine 197
notes: SGTA, human, residues 1-213; all four wild-type cysteines changed to serine, then S197C; also called C-terminal deletion mutant S197C; source: E. coli, prepared in the same way as the wild-type versions, MTSL spin-labelled, size-exclusion chromatography; not shown: thioredoxin A, N-terminal, cleaved; His6, N-terminal, cleaved

The first data set concerns the molecule itself. Description: native MS; protein 5-10 uM in 0.20-0.75 M ammonium acetate pH 7.0, electrosprayed, source temperature 20 °C; self-association (monomer to dimer).
By stoichiometry N is commonly meant the number of molecules, sites or subunits per partner or assembly. In the case of B1, the “stoichiometry N” value amounted to 2.
Same read-out and setting: as for B2, the figure is 2.

Another data set deals with the molecule itself. Description: DEER (EPR) spectroscopy; MTSL spin label on a single cysteine; distances between homologous sites in each monomer; 300-500 uM, D2O buffer with 50% d8-glycerol, flash frozen, measured at 50 K.
On to B3, for which the binding result was “binds”.
Regarding B4, the binding result was “binds”.
On the same count and under the same terms, as for B5, the entry is “binds”.
Still for that read-out and setting: with B6 the entry was “binds”; with B7, “binds”.
For B8, the binding result is listed as “binds”.
Same read-out and setting: as for B9, the entry is “binds”; as for B10, “binds”.
